This test has as its target H4 tail (residues 1-30) of the acetyl reporter protein (H4ac indicator). The test is described as follows: cell-based or functional assay.

The values that follow come from patent publication US20170100354A1.

Consider “TATA binding protein (TBP)-associated factor II (TAFII) bromodomain of the H4ac indicator”, for which the % of cells discriminated from auto fluorescence (FACS), H4ac indicator, 1 µM SAHA is 5%; the % of cells discriminated from auto fluorescence (FACS), H4ac indicator, 2.5 µM SAHA amounted to 20%; the % of cells discriminated from auto fluorescence (FACS), H4ac indicator, 7.5 µM SAHA turned out to be 40%; the % of cells discriminated from auto fluorescence (FACS), H4ac indicator, 10 µM SAHA was found to be 45%.
